Assay results published in US20140243227A1, “CULTURE MEDIA FOR STEM CELLS” (Koninklijke Nederlandse Akademie van Wetenschappen, priority 2011, published 2014).

Assays:
[1] = test system: human colon crypts; assay: Screening of reagents for optimization of human intestinal organoids culture (plating efficiency); type: cell-based; details: First screening (WENR)
[2] = test system: pancreatic organoids; assay: Effect of Noggin on gene expression of pancreatic organoids in expansion medium; details: EGFRAN vs EGFRA medium
[3] = test system: Barrett's Esophagus epithelium; assay: Culture of Barrett's esophagus (BE) organoids; details: FGF10 added to HISC condition
[4] = test system: mouse organoids; assay: M cell development in organoids stimulated with RANK ligand; type: cell-based
Procedure: FIG. 48: A) Mouse organoids were cultured in the presence of different doses recombinant mouse RANKL for 72 h. mRNA expression levels for RANK, the transciption factor SpiB and the M cell-specific markers GP2 and AnnexinV were determined by qPCR.

B1: GDNF: growth factor (Peprotech) (protein, UniProt P39905 78-211, looked up)
Glial cell line-derived …: SPDKQMAVLPRRERNRQAAAANPENSRGKGRRGQRGKNRGCVLTAIHLNVTDLGLGYETKEELIFRYCSGSCDAAETTYDKILKNLSRNRRLVSDKVGQACCRPIAFDDDLSFLDDNLVYHILRKHSAKRCGCI
- Activity (plating efficiency compared with control after 4 days culture) [1]: 0

B2: Cyr61: growth factor (Peprotech) (protein, UniProt O00622 25-381, looked up)
CCN family member 1: TCPAACHCPLEAPKCAPGVGLVRDGCGCCKVCAKQLNEDCSKTQPCDHTKGLECNFGASSTALKGICRAQSEGRPCEYNSRIYQNGESFQPNCKHQCTCIDGAVGCIPLCPQELSLPNLGCPNPRLVKVTGQCCEEWVCDEDSIKDPMEDQDGLLGKELGFDASEVELTRNNELIAVGKGSSLKRLPVFGMEPRILYNPLQGQKCIVQTTSWSQCSKTCGTGISTRVTNDNPECRLVKETRICEVRPCGQPVYSSLKKGKKCSKTKKSPEPVRFTYAGCLSVKKYRPKYCGSCVDGRCCTPQLTRTVKMRFRCEDGETFSKNVMMIQSCKCNYNCPHANEAAFPFYRLFNDIHKFRD
- Activity (plating efficiency compared with control after 4 days culture) [1]: 0

B3: BDNF: brain-derived neurotrophic factor (protein, UniProt P23560 19-247, looked up)
Neurotrophic factor BDNF …: APMKEANIRGQGGLAYPGVRTHGTLESVNGPKAGSRGLTSLADTFEHVIEELLDEDQKVRPNEENNKDADLYTSRVMLSSQVPLEPPLLFLLEEYKNYLDAANMSMRVRRHSDPARRGELSVCDSISEWVTAADKKTAVDMSGGTVTVLEKVPVSKGQLKQYFYETKCNPMGYTKEGCRGIDKRHWNSQCRTTQSYVRALTMDSKKRIGWRFIRIDTSCVCTLTIKRGR
- Activity (plating efficiency compared with control after 4 days culture) [1]: 0

B4: Follistatin: growth factor (Peprotech) (protein, UniProt P19883 30-344, looked up)
Follistatin: GNCWLRQAKNGRCQVLYKTELSKEECCSTGRLSTSWTEEDVNDNTLFKWMIFNGGAPNCIPCKETCENVDCGPGKKCRMNKKNKPRCVCAPDCSNITWKGPVCGLDGKTYRNECALLKARCKEQPELEVQYQGRCKKTCRDVFCPGSSTCVVDQTNNAYCVTCNRICPEPASSEQYLCGNDGVTYSSACHLRKATCLLGRSIGLAYEGKCIKAKSCEDIQCTGGKKCLWDFKVGRGRCSLCDELCPDSKSDEPVCASDNATYASECAMKEAACSSGVLLEVKHSGSCNSISEDTEEEEEDEDQDYSFPISSILEW
- Activity (plating efficiency compared with control after 4 days culture) [1]: 0

B5: Noggin: BMP inhibitor (protein, UniProt Q13253 28-232, looked up)
Noggin: QHYLHIRPAPSDNLPLVDLIEHPDPIFDPKEKDLNETLLRSLLGGHYDPGFMATSPPEDRPGGGGGAAGGAEDLAELDQLLRQRPSGAMPSEIKGLEFSEGLAQGKKQRLSKKLRRKLQMWLWSQTFCPVLYAWNDLGSRFWPRYVKVGSCFSKRSCSVPEGMVCKPSKSVHLTVLRWRCQRRGGQRCGWIPIQYPIISECKCSC
- Lgr5 expression relative to organoids cultured without Noggin [2]: 2 fold

B6: FGF10: human recombinant FGF10 (Peprotech) (protein, UniProt O15520 38-208, looked up)
Fibroblast growth factor 10: QALGQDMVSPEATNSSSSSFSSPSSAGRHVRSYNHLQGDVRWRKLFSFTKYFLKIEKNGKVSGTKKENCPYSILEITSVEIGVVAVKAINSNYYLAMNKKGKLYGSKEFNNDCKLKERIEENGYNTYASFNWQHNGRQMYVALNGKGAPRRGQKTRRKNTSAHFLPMVVHS
- Activity (plating efficiency compared with control after 4 days culture) [1]: 0
- Culture duration of BE organoids [3]: > 3 months

B7: RANK ligand: RANK ligand (RANKL), recombinant (protein, UniProt O14788 140-317, looked up)
Tumor necrosis factor ligand …: IRAEKAMVDGSWLDLAKRSKLEAQPFAHLTINATDIPSGSHKVSLSSWYHDRGWAKISNMTFSNGKLIVNQDGFYYLYANICFRHHETSGDLATEYLQLMVYVTKTSIKIPSSHTLMKGGSTKYWSGNSEFHFYSINVGGFFKLRSGEEISIEVSNPSLLDPDQDATYFGAFKVRDID
- Development of M cells [4]: can develop into M cells
